Measurements from PMC9512702.

Experiments:
[1] = target: mammalian expressed RBD (mRBD) of SARS-CoV-2 spike (SARS-CoV-2) (UniProt P0DTC2); experiment: SPR
[2] = target: mammalian expressed RBD (mRBD) of SARS-CoV-2 spike (SARS-CoV-2) (UniProt P0DTC2); experiment: SEC-MALS
[3] = target: mammalian expressed RBD (mRBD) of SARS-CoV-2 spike (SARS-CoV-2) (UniProt P0DTC2); experiment: nanoDSF thermal shift

Kd [1]: 42 pM | stoichiometry N [2]: 1 LCB1:RBD | other [3]: 16 °C
Substance: LCB1 (designed binder)
